# In patent US11512128B2, “VEGF/DLL4 binding agents and uses thereof” (MEREO BIOPHARMA 5, INC., priority 2011, dated 2022):
# What was measured:
# OMP-C8 colon tumor = OMP-C8 colon tumor recurrence model; format: in vivo, NOD/SCID mice; conditions: 21M18, bevacizumab 7.5 mg/kg, bispecifics 15 mg/kg weekly ip; irinotecan 45 mg/kg for first four weeks
# Protocol: FIG. 9. Inhibition of colon tumor growth by anti-VEGF/anti-DLL4 bispecific antibodies in tumor recurrence model. OMP-C8 colon tumor cells were injected subcutaneously in NOD/SCID mice. Mice were treated with control antibody (-▪-), anti-hDLL4 antibody 21M18 (-●-), anti-VEGF antibody bevacizumab (-▴-), a combination of 21M18 and bevacizumab (-▾-), anti-VEGF/anti-DLL4 bispecific antibody 219R45-MB-21M18 (-⋄-), or anti-VEGF/anti-DLL4 bispecific antibody 219R45-MB-21R79 (-∘-), all in combination with irinotecan. Antibodies 21M18 and bevacizumab were administered intraperitoneally at a dose of 7.5 mg/kg once a week, bispecific antibodies 219R45-MB-21M18 and 219R45-MB-21R79 were administered intraperitoneally at a dose of 15 mg/kg once a week, and irinotecan was administered for the first 4 weeks at a dose of 45 mg/kg. Data are shown as tumor volume (mm^3) over days post-treatment.
# Single cell suspensions of OMP-C8 colon tumor xenografts (20,000 cells) were injected subcutaneously into the flanks of 6-8 week old NOD/SCID mice. […] Tumor growth was monitored and tumor volumes were measured with electronic calipers at the indicated time points. Data are expressed as mean±S.E.M.
# OMP-C8 colon tumor cells = experiment: Tumor growth in human skin graft model; format: in vivo, NOD-SCID mice; conditions: 25 mg/kg intraperitoneally once a week
# Protocol: FIG. 5. Inhibition of colon tumor growth in vivo by an anti-VEGF/anti-DLL4 bispecific antibody. OMP-C8 colon tumor cells were injected subcutaneously into a human skin graft in NOD/SCID mice. Mice were treated with control antibody (-▪-), anti-hDLL4 antibody 21M18 (-▴-), anti-VEGF antibody bevacizumab (-∘-), or anti-VEGF/anti-DLL4 bispecific antibody 219R45-MB-21M18 (-▾-). Data is shown as tumor volume (photons/sec) over days post-treatment. Antibodies were administered intraperitoneally at a dose of 25 mg/kg once a week.
# A human skin graft model has been reported which comprises a human skin graft and human tumor cells. A human skin graft is established and then human tumor cells are implanted into the skin graft, allowing the tumor cells to grow in an environment with human stroma and vasculature (Tahtis et al., 2003, Mol. Cancer Ther. 2:[…]). Human skin samples were obtained from neonatal foreskin tissue and grafted onto the lateral flank of NOD-SCID mice. After establishment of the skin graft, luciferase-labeled OMP-C8 colon tumor cells (20,000 cells) were injected intradermally into the human skin. Tumor growth was monitored by bioluminescence imaging using an IVIS imaging system (Caliper Life Sciences, Mountain View, Calif.). Tumors were allowed to grow until they reached 1.2×10^6 photons per second. Tumor-bearing mice (n=6 mice/group) were randomized and treated with control Ab, anti-hDLL4 antibody 21M18, anti-VEGF antibody bevacizumab, or anti-VEGF/anti-DLL4 bispecific antibody 219R45-MB-21M18. Animals were treated once a week and antibodies were administered intraperitoneally at a dose of 25 mg/kg. Tumor growth was monitored by bioluminescence imaging on the indicated days.
# VEGF and DLL4 = VEGF and DLL4 (Homo sapiens, UniProt P15692+Q9NR61); experiment: HTRF assay for simultaneous binding to human VEGF and human DLL4; conditions: d2-labeled hDLL4-Fc and Europium cryptate-labeled hVEGF165
# Description: FIG. 2. HTRF assay for simultaneous binding of bispecific antibodies to human VEGF and human DLL4. Results are reported in Relative Fluorescence Units (RFU), which represent the ratio of the relative fluorescence intensity at 665 nm to the relative fluorescence intensity at 620 nm. 219R45-MB-21M18 (-●-); 219R45-MB-21R79 (-▪-); 219R45 plus 21M18 (-▴-); 219R45 plus 21R79 (-□-); 219R45 (-▾-); 21M18 (-⋄-); 21R79 (-∘-); control antibody LZ-1 (-Δ-).
# To characterize the binding capabilities of certain antibodies and/or antibody mixtures to both VEGF and DLL4, homogeneous time resolved fluorescence (HTRF) assays were performed. Antibodies tested were anti-VEGF/anti-DLL4 bispecific antibodies 219R45-MB-21M18 and 219R45-MB-21R79, parental antibodies 219R45 (anti-VEGF), 21M18 (anti-DLL4), 21R79 (anti-DLL4), a combination of 219R45 and 21M18, or a combination of 219R45 and 21R79. The antibodies or antibody mixtures were serially diluted 2-fold from 3000 nM to 2.9 nM in binding buffer (1× PBS, 0.1% gelatin, 0.1% Polysorbate 20, 400 mM potassium fluoride) and placed in a white 96-well plate. […] The assay plates were incubated for 2 hours to overnight and read on a SpectraMax M5e Microplate reader (Molecular Devices, Sunnyvale, Calif.) at an excitation wavelength of 314 nm.
Molecule,inhibition of tumor regrowth after irinotecan was stopped (OMP-C8 colon tumor),inhibition of tumor growth (bioluminescence) (OMP-C8 colon tumor cells),simultaneous binding to hVEGF and hDLL4 (VEGF and DLL4)
"21M18: anti-DLL4 antibody, parental antibody (Hoey et al., 2009; U.S. Pat. No. 7,750,124) (antibody, V domains shown) VH: QVQLVQSGAEVKKPGASVKISCKASGYSFTAYYIHWVKQAPGQGLEWIGYISSYNGATNYNQKFKGRVTFTTDTSTSTAYMELRSLRSDDTAVYYCARDYDYDVGMDYWGQGTLVTVSS VL: DIVMTQSPDSLAVSLGERATISCRASESVDNYGISFMKWFQQKPGQPPKLLIYAASNQGSGVPDRFSGSGSGTDFTLTISSLQAEDVAVYYCQQSKEVPWTFGGGTKVEIK",continued to inhibit tumor growth after treatment with irinotecan was stopped,inhibited tumor growth,
"219R45-MB-21R79: anti-VEGF/anti-DLL4 monovalent/bispecific antibody, heavy chains SEQ ID NO:7 and 6, light chains SEQ ID NO:8 (antibody, 21R79 Heavy chain without predicted signal sequence; Light chain without predicted signal sequence) heavy 1: QVQLVQSGAEVKKPGASVKVSCKASGYTFTNYWMHWVRQAPGQGLEWMGDINPSNGRTSYKEKFKRRVTLSVDKSSSTAYMELSSLRSEDTAVYFCTIHYDDKYYPLMDYWGQGTLVTVSSASTKGPSVFPLAPCSRSTSESTAALGCLVKDYFPEPVTVSWNSGALTSGVHTFPAVLQSSGLYSLSSVVTVPSSNFGTQTYTCNVDHKPSNTKVDKTVERKCCVECPPCPAPPVAGPSVFLFPPKPKDTLMISRTPEVTCVVVDVSHEDPEVQFNWYVDGVEVHNAKTKPREEQFNSTFRVVSVLTVVHQDWLNGKEYKCKVSNKGLPAPIEKTISKTKGQPREPQVYTLPPSREKMTKNQVSLTCLVKGFYPSDIAVEWESNGQPENNYKTTPPMLKSDGSFFLYSKLTVDKSRWQQGNVFSCSVMHEALHNHYTQKSLSLSPGK heavy 2: QVQLVQSGAEVKKPGASVKISCKASGYSFTAYYIHWVKQAPGQGLEWIGYIANYNRATNYNQKFKGRVTFTTDTSTSTAYMELRSLRSDDTAVYYCARDYDYDVGMDYWGQGTLVTVSSASTKGPSVFPLAPCSRSTSESTAALGCLVKDYFPEPVTVSWNSGALTSGVHTFPAVLQSSGLYSLSSVVTVPSSNFGTQTYTCNVDHKPSNTKVDKTVERKCCVECPPCPAPPVAGPSVFLFPPKPKDTLMISRTPEVTCVVVDVSHEDPEVQFNWYVDGVEVHNAKTKPREEQFNSTFRVVSVLTVVHQDWLNGKEYKCKVSNKGLPAPIEKTISKTKGQPREPQVYTLPPSREEMTKNQVSLTCLVEGFYPSDIAVEWESNGQPENNYKTTPPMLDSDGSFFLYSELTVDKSRWQQGNVFSCSVMHEALHNHYTQKSLSLSPGK light: DIVMTQSPDSLAVSLGERATISCRASESVDNYGISFMKWFQQKPGQPPKLLIYAASNQGSGVPDRFSGSGSGTDFTLTISSLQAEDVAVYYCQQSKEVPWTFGGGTKVEIKRTVAAPSVIFPPSDEQLKSGTASVVCLLNNFYPREAKVQWKVDNALQSGNSQESVTEQDSKDSTYSLSSTLTLSKADYEKHKVYACEVTHQGLSSPVTKSFNRGEC",,,able to bind both hVEGF and hDLL4 simultaneously
"219R45-MB-21M18: anti-VEGF/anti-DLL4 monovalent/bispecific antibody, heavy chains SEQ ID NO:7 and 5, light chains SEQ ID NO:8 (antibody, 21R79 Heavy chain without predicted signal sequence; 21M18 Heavy chain without predicted signal sequence; Light chain without predicted signal sequence) heavy 1: QVQLVQSGAEVKKPGASVKVSCKASGYTFTNYWMHWVRQAPGQGLEWMGDINPSNGRTSYKEKFKRRVTLSVDKSSSTAYMELSSLRSEDTAVYFCTIHYDDKYYPLMDYWGQGTLVTVSSASTKGPSVFPLAPCSRSTSESTAALGCLVKDYFPEPVTVSWNSGALTSGVHTFPAVLQSSGLYSLSSVVTVPSSNFGTQTYTCNVDHKPSNTKVDKTVERKCCVECPPCPAPPVAGPSVFLFPPKPKDTLMISRTPEVTCVVVDVSHEDPEVQFNWYVDGVEVHNAKTKPREEQFNSTFRVVSVLTVVHQDWLNGKEYKCKVSNKGLPAPIEKTISKTKGQPREPQVYTLPPSREKMTKNQVSLTCLVKGFYPSDIAVEWESNGQPENNYKTTPPMLKSDGSFFLYSKLTVDKSRWQQGNVFSCSVMHEALHNHYTQKSLSLSPGK heavy 2: QVQLVQSGAEVKKPGASVKISCKASGYSFTAYYIHWVKQAPGQGLEWIGYISSYNGATNYNQKFKGRVTFTTDTSTSTAYMELRSLRSDDTAVYYCARDYDYDVGMDYWGQGTLVTVSSASTKGPSVFPLAPCSRSTSESTAALGCLVKDYFPEPVTVSWNSGALTSGVHTFPAVLQSSGLYSLSSVVTVPSSNFGTQTYTCNVDHKPSNTKVDKTVERKCCVECPPCPAPPVAGPSVFLFPPKPKDTLMISRTPEVTCVVVDVSHEDPEVQFNWYVDGVEVHNAKTKPREEQFNSTFRVVSVLTVVHQDWLNGKEYKCKVSNKGLPAPIEKTISKTKGQPREPQVYTLPPSREEMTKNQVSLTCLVEGFYPSDIAVEWESNGQPENNYKTTPPMLDSDGSFFLYSELTVDKSRWQQGNVFSCSVMHEALHNHYTQKSLSLSPGK light: DIVMTQSPDSLAVSLGERATISCRASESVDNYGISFMKWFQQKPGQPPKLLIYAASNQGSGVPDRFSGSGSGTDFTLTISSLQAEDVAVYYCQQSKEVPWTFGGGTKVEIKRTVAAPSVIFPPSDEQLKSGTASVVCLLNNFYPREAKVQWKVDNALQSGNSQESVTEQDSKDSTYSLSSTLTLSKADYEKHKVYACEVTHQGLSSPVTKSFNRGEC",more effective at inhibiting tumor regrowth than the mixture of the two antibodies,more effective than either the anti-DLL4 antibody or the anti-VEGF antibody alone,able to bind both hVEGF and hDLL4 simultaneously
